Key:
HLA-B*44:02 = assay: IEDB peptide-MHC binding, purified MHC/competitive/radioactivity; filed as Kd, often an IC50 or EC50 that approximates it; ≥ and ≤ were set here for values at or beyond the usual limits of such assays
HLA-B*44:03 = assay: as above
HLA-A*01:01 [1] = assay: IEDB peptide-MHC binding, purified MHC/direct/fluorescence; filed as Kd, often an IC50 or EC50 that approximates it; ≥ and ≤ were set here for values at or beyond the usual limits of such assays
HLA-A*01:01 [2] = assay: IEDB peptide-MHC binding, purified MHC/competitive/radioactivity; filed as Kd, often an IC50 or EC50 that approximates it; ≥ and ≤ were set here for values at or beyond the usual limits of such assays
HLA-A*30:02 = assay: as above
HLA-A*23:01 = assay: as above
HLA-A*24:02 = assay: as above
HLA-A*26:01 [3] = assay: as above
HLA-A*29:02 = assay: as above
HLA-A*31:01 = assay: IEDB peptide-MHC binding, purified MHC/direct/fluorescence; filed as Kd, often an IC50 or EC50 that approximates it; ≥ and ≤ were set here for values at or beyond the usual limits of such assays; conditions: source organism: SARS-CoV1
HLA-A*33:01 = assay: IEDB peptide-MHC binding, purified MHC/competitive/radioactivity; filed as Kd, often an IC50 or EC50 that approximates it; ≥ and ≤ were set here for values at or beyond the usual limits of such assays; conditions: source organism: SARS coronavirus Tor2
HLA-A*68:01 = assay: as above; conditions: source organism: SARS coronavirus Tor2
HLA-A*30:01 = assay: as above
HLA-B*40:01 = assay: as above
HLA-B*53:01 = assay: as above
HLA-A*26:01 [4] = assay: IEDB peptide-MHC binding, purified MHC/direct/fluorescence; filed as Kd, often an IC50 or EC50 that approximates it; ≥ and ≤ were set here for values at or beyond the usual limits of such assays; conditions: source organism: Mycobacterium tuberculosis
HLA-A*02:01 = assay: IEDB peptide-MHC binding, purified MHC/competitive/fluorescence; filed as Kd, often an IC50 or EC50 that approximates it; ≥ and ≤ were set here for values at or beyond the usual limits of such assays; conditions: source organism: unidentified
HLA-A*03:01 = assay: IEDB peptide-MHC binding, purified MHC/direct/fluorescence; filed as Kd, often an IC50 or EC50 that approximates it; ≥ and ≤ were set here for values at or beyond the usual limits of such assays; conditions: source organism: SARS-CoV1
HLA-A*11:01 = assay: as above; conditions: source organism: SARS-CoV1
HLA-B*58:01 = assay: as above; conditions: source organism: SARS-CoV1
HLA-B*15:01 = assay: as above
HLA-B*27:05 = assay: as above; conditions: source organism: SARS-CoV1
[5] = source organism: Dengue virus 2 Jamaica/1409/1983
[6] = source organism: Dengue virus 1 Singapore/S275/1990
[7] = source organism: SARS coronavirus Tor2
[8] = source organism: Dengue virus 3 Martinique/1243/1999
[9] = source organism: Dengue virus 1 Brazil/97-11/1997
[10] = source organism: Dengue virus 4 Philippines/H241/1956
[11] = source organism: Mammarenavirus guanaritoense
[12] = source organism: Vaccinia virus WR
[13] = source organism: Mammarenavirus lassaense
[14] = source organism: Mammarenavirus whitewaterense

Sequence: AECPNTNRAW
- Kd (HLA-B*44:02; [5]): 35.6 nM
- Kd (HLA-B*44:03; [5]): 53 nM

Sequence: AINGFVLPK
- Kd (HLA-A*01:01 [1]; source organism: Yersinia pestis): ≥ 20000 nM

Sequence: ALGKSEFQIY
- Kd (HLA-A*01:01 [2]; [5]): 1540 nM
- Kd (HLA-A*30:02; [5]): ≥ 69700 nM

Sequence: AQIMEVTARW
- Kd (HLA-B*44:02; [6]): 156 nM
- Kd (HLA-B*44:03; [6]): 104 nM

Sequence: ASEFSSLPSY
- Kd (HLA-A*01:01 [2]; [7]): 14.1 nM
- Kd (HLA-A*23:01; [7]): ≥ 70000 nM
- Kd (HLA-A*24:02; [7]): ≥ 70300 nM
- Kd (HLA-A*26:01 [3]; [7]): 11900 nM
- Kd (HLA-A*29:02; [7]): 102 nM
- Kd (HLA-A*30:02; [7]): 47.4 nM

Sequence: AVLQSGFRK
- Kd (HLA-A*31:01): 186 nM
- Kd (HLA-A*33:01): ≥ 77.7 µM
- Kd (HLA-A*68:01): 393 nM

Sequence: DEAHFTDPAS
- Kd (HLA-A*30:01; [5]): 13900 nM

Sequence: EEFLDYMPSM
- Kd (HLA-A*30:01; [8]): 2290 nM
- Kd (HLA-B*40:01; [8]): 142 nM
- Kd (HLA-B*44:03; [8]): 70.8 nM

Sequence: EERDDTLTIL
- Kd (HLA-B*40:01; [9]): 22 nM

Sequence: EIPLQWIASA
- Kd (HLA-A*26:01 [3]; [8]): 2620 nM

Sequence: EPSKGWKNW
- Kd (HLA-B*53:01; [10]): 608 nM

Sequence: ESQMLIPKAY
- Kd (HLA-A*01:01 [2]; [10]): ≥ 39300 nM
- Kd (HLA-A*30:02; [10]): 8.93 nM

Sequence: ETLQRKYGGA
- Kd (HLA-A*26:01 [3]; [5]): 311 nM

Sequence: EVSARIAAL
- Kd (HLA-A*26:01 [4]): 12.4 nM

Sequence: EVSTAIAAL
- Kd (HLA-A*26:01 [4]): 12.2 nM

Sequence: FETTMRGAKR
- Kd (HLA-B*40:01; [5]): 3580 nM

Sequence: FLHEDTEKI
- Kd (HLA-A*02:01): 20 nM

Sequence: FVTLITGNM
- Kd (HLA-A*26:01 [3]; [5]): 1390 nM

Sequence: GEFRLRGEQR
- Kd (HLA-B*40:01; [10]): 1400 nM

Sequence: GEKALKLSW
- Kd (HLA-B*44:02; [9]): 39.7 nM
- Kd (HLA-B*44:03; [9]): 40.2 nM

Sequence: GESNIVIGI
- Kd (HLA-B*40:01; [8]): 2.36 nM
- Kd (HLA-B*44:02; [8]): 10.8 nM
- Kd (HLA-B*44:03; [8]): 5.95 nM

Sequence: GHHTNFESF
- Kd (HLA-A*26:01 [3]; [11]): ≥ 77900 nM
- Kd (HLA-A*30:02; [11]): 3830 nM

Sequence: GRLITANPIV
- Kd (HLA-A*30:01; [9]): ≥ 57100 nM

Sequence: GSRVRNIIA
- Kd (HLA-A*30:01; [12]): 8.85 nM

Sequence: GTDSGFAAY
- Kd (HLA-A*01:01 [1]; source organism: SARS-CoV1): 13 nM
- Kd (HLA-A*03:01): 0.714 µM
- Kd (HLA-A*11:01): 103 nM
- Kd (HLA-B*58:01): 11.6 µM
- Kd (HLA-A*23:01; [7]): ≥ 77800 nM
- Kd (HLA-A*24:02; [7]): ≥ 77600 nM
- Kd (HLA-A*26:01 [3]; [7]): 2350 nM
- Kd (HLA-A*29:02; [7]): 52.9 nM
- Kd (HLA-A*30:02; [7]): 15.7 nM

Sequence: GVFPVSIPIT
- Kd (HLA-A*30:01; [5]): 7360 nM

Sequence: HAVYSIVFV
- Kd (HLA-A*30:01; [12]): 591 nM

Sequence: HERGRPLLF
- Kd (HLA-B*44:03; [10]): 1000 nM

Sequence: HETGRLEPSW
- Kd (HLA-B*44:02; [10]): ≥ 70200 nM
- Kd (HLA-B*44:03; [10]): 188 nM

Sequence: HIFYQLANV
- Kd (HLA-A*30:01; [12]): 60.4 nM

Sequence: HLSNSFFIK
- Kd (HLA-A*30:01; [12]): 17.3 nM

Sequence: HVYDFEPYY
- Kd (HLA-A*30:01; [12]): 27.4 nM

Sequence: IIKSPYMFA
- Kd (HLA-A*30:01; source organism: Vaccinia virus Copenhagen): 6.42 nM

Sequence: IPQWEPSKGW
- Kd (HLA-B*53:01; [9]): 90 nM

Sequence: IQNKLSSTF
- Kd (HLA-B*15:01; [13]): 24 nM
- Kd (HLA-A*23:01; [13]): 345 nM
- Kd (HLA-A*24:02; [13]): 272 nM
- Kd (HLA-A*29:02; [13]): ≥ 35000 nM

Sequence: ITEAELTGY
- Kd (HLA-A*26:01 [3]; [5]): 8270 nM
- Kd (HLA-A*30:02; [5]): 9.47 nM

Sequence: IYQPESQKF
- Kd (HLA-A*23:01; [14]): 53.4 nM
- Kd (HLA-A*24:02; [14]): 33.5 nM
- Kd (HLA-A*29:02; [14]): 412 nM

Sequence: IYVILTILTI
- Kd (HLA-A*23:01; [10]): 11.8 nM
- Kd (HLA-A*24:02; [10]): 48.6 nM

Sequence: KAELEEGVY
- Kd (HLA-A*30:02; [8]): ≥ 52800 nM

Sequence: KEENMVKSLV
- Kd (HLA-B*40:01; [8]): 243 nM

Sequence: KEFASGRKSI
- Kd (HLA-B*40:01; [10]): 111 nM

Sequence: KEGTFHTMW
- Kd (HLA-B*44:02; [5]): 102 nM
- Kd (HLA-B*44:03; [5]): 47 nM

Sequence: KHMIAGVFF
- Kd (HLA-A*24:02; [8]): 837 nM

Sequence: KMKELSPRW
- Kd (HLA-A*03:01): 5.75 µM
- Kd (HLA-A*11:01): ≥ 30200 nM
- Kd (HLA-B*15:01; source organism: SARS-CoV1): 1200 nM
- Kd (HLA-B*27:05): 5.25 µM
- Kd (HLA-B*58:01): 0.42 µM

Reference: the Immune Epitope Database (IEDB)
